{"source": "paper PMC11705074", "binders": {"B1": {"name": "44-bp Phhp (dsDNA)", "DNA 1": "CATATAAAAATTGTTGGGCAAATCTGCCCAGAAAAGCTTAAAAG", "DNA 2": "CTTTTAAGCTTTTCTGGGCAGATTTGCCCAACAATTTTTATATG"}}, "key": {"HhpR [1]": {"target": "T1, HhpR (Pyrococcus yayanosii A1, UniProt F8AFU3 1-281)", "T1 sequence": "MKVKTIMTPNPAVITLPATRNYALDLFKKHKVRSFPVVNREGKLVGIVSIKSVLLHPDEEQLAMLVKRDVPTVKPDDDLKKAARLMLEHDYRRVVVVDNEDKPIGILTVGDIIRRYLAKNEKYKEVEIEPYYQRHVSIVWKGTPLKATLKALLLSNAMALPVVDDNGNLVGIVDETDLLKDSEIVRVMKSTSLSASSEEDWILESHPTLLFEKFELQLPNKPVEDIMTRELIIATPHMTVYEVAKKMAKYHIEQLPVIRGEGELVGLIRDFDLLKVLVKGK", "assay": "fluorescence polarization"}, "HhpR [2]": {"target": "T1, HhpR", "assay": "fluorescence polarization", "remark": "listed apart in the source"}}, "note": "Where two headings read alike, the source gives them in different places.", "data": [{"binder": "B1", "values": [{"measurement": "Kd", "setting": "HhpR [1]", "result": "1900 ± 400", "unit": "nM"}, {"measurement": "Kd", "setting": "HhpR [2]", "result": "650 ± 370", "unit": "nM"}]}]}
